Experiment: yeast display, Sf9 membrane polyspecificity reagent, FACS + sequencing; frameworks hold sequencing errors
Method in brief: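 A synthetic nanobody library was expressed on Saccharomyces cerevisiae BJ5465 by galactose induction for 36–48 hours. The library was stained for 1 hour at 4 °C with 10% biotinylated, detergent-solubilized Sf9 membrane reagent and enriched with streptavidin microbeads before FACS. Low and high (top ~1%) gates were set on anti-HA fluorescence for expression and streptavidin fluorescence for reagent binding, and each polyreactivity label reflects the gate of origin.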

QVQLVESGGGLVQAGGSLRLSCAAYGRIFFNNAMGWYRQAPGKERELVAAINSGGRTNYADSVKGRFTISRDNAKNTVYLQMNSLKPEDTAVYYCNADDYPVWEFDYWGQGTQVTVSS
polyreactivity (PSR sort gate): low polyreactivity

QVQLVESGGGLVQAGGSLRLSCAAYGRIFLGYAMGWYIQAPGKERELVAVISYSGTRTYYADSVKGRFTISRDNAKNTVYLQMNSLKPEDTAVYYCNARANGFKDGYWGQGTQVTVSS
polyreactivity (PSR sort gate): high polyreactivity

QVQLVESGGGLVQAGGSLRLSCAAYGRNFTYYAMGWYRQAPGKERELVAANSRSGGRTYYADSVKGRFTISRDNAKNTVYLQMNSLKPEDTGVYYCAADRLSLRAYDYWGQGTQVNVSS
polyreactivity (PSR sort gate): high polyreactivity

QVQLVESGGGLVQAGGSLRLSCAAYGRTFWRNAMGWYRQAPGKEREWVAAISRSGDSTRYADSLKGRFTISRDNAKNTFYLQMNSLKPEDTAVYYCNKLGTRVYEMDYWGQGTQVTVSS
polyreactivity (PSR sort gate): high polyreactivity

QVQLVESGGGLVQAGGSLRLSCAAYGRTIPRYAIGWSRQAPGKQRDFVDSISFSSGSTYYADSVKGRFTISRDNAKNTVYVQMKSMKAEDTAVDYSNDIPGSRYYGYRLYYYWGQGTQVTVSS
polyreactivity (PSR sort gate): high polyreactivity

QVQLVESGGGLVQAGGSLRLSCAAYGRTIRVYAMVWYRQAPGKERELVAAITSGDSTYYADSVKGRFTISRDNAKNTVYLQMNSLKPEDTAVYYCAVNTRRYWYGYWGQGTQVTVSS
polyreactivity (PSR sort gate): high polyreactivity

QVQLVESGGGLVQAGGSLRLSCAAYGRTISRNTMAWYRQAPGKERELVAGITYGGDRTYYADSVKGRFTISRDNAKNTVYLQMNSLKPEDTSVYYCAAPWYWKGLRDYWGQGTQVTVSS
polyreactivity (PSR sort gate): low polyreactivity

QVQLVESGGGLVQAGGSLRLSCAAYGSIFRVYAMGWYRQAPGKEREFVAAITRRGTRTYYADSVKGRFTISRDNAKNTVYLQMNSLKPEDTAVYYCAAYFTDGLFEYWGQGTQVTVSS
polyreactivity (PSR sort gate): low polyreactivity

QVQLVESGGGLVQAGGSLRLSCAAYGSIFSWNAMGWYIQAPRKERELVAGITWSGGGTSYADSVKGRFTISRDNAKNTVYLQMNSLKPEDTAVYYCAKEWIFEFNYWGQGTQVTVSS
polyreactivity (PSR sort gate): low polyreactivity

QVQLVESGGGLVQAGGSLRLSCAAYGSIFYFNAMGRYRQAPGKERELVASITSGGSTNYADSVKGRFTISRDNAKNTVYLQMNSLKPEETEVYYCNARFPYLSRWLVRGLASYDYWGQGTQVTVSS
polyreactivity (PSR sort gate): low polyreactivity

QVQLVESGGGLVQAGGSLRLSCAAYGSIFYYNAMGWYRQAPGKERELVAAITKSGTRTNYADSVKGRFTLSRDNAKNTVYLQMNSLKPEDTAVYYCAAEDQYYRYLFAYEYWGQGTQVTVSS
polyreactivity (PSR sort gate): high polyreactivity

QVQLVESGGGLVQAGGSLRLSCAAYGSILYVYAMGWYRQAPGKERELVAVITAGGSTNYADSVKGRFTISRDNAKNTVYLQMNSLKPEHSAVYYCAADPYSVYGGDYWGQGTQVTVSS
polyreactivity (PSR sort gate): low polyreactivity

QVQLVESGGGLVQAGGSLRLSCAAYGSTFYNNVMGWYRPAPGKERELVAAINSGGRTYYADSVKGRFTISRDNAKNTVYLQMNSLKPEDTAVYYCAVGYGRAGRMDYWGQGTQVTVSS
polyreactivity (PSR sort gate): high polyreactivity

QVQLVESGGGLVQAGGSLRLSCAAYGSTLTWNAMGWYRQAPGKERELVAAITGVGSTNYADSVKGRFTISRDNAKNTVYLQMNSLKPEDSAVYYCAAQGSGSTLYEYWGQGTQVTVSS
polyreactivity (PSR sort gate): low polyreactivity

QVQLVESGGGLVQAGGSLRLSCAAYSYVMGWYRQAPGKERELVAAISQSGGSTYYADSVKGRFTISRDNAKNTVYLQMNSLKPEDTADYYCAARREPYQYNQYYSWGQGTQVTVSS
polyreactivity (PSR sort gate): high polyreactivity

QVQLVESGGGLVQAGGSLRLSCAAYVSIFGDNALGWYRQAPGKEMELVAAISSDGNTNYADSVKGRFTISRDNAKNTVYLQMNSLKPEDTAVYYCAARWGYRRVRANSFYYWGQGTQVTVSS
polyreactivity (PSR sort gate): low polyreactivity

QVQLVESGGGLVQAGGSLRLSCAAYYAMGWYRQAPGKERELVAAIDDGTSTNYADSVKGRFTISRDNAKNTVYLQMKSLKPEDTAVYYCNKLSEVTYYGSKFDYWGQGTQVTVSS
polyreactivity (PSR sort gate): low polyreactivity

QVQLVESGGGLVQAGGSLRLSCAAYYYNMGWYRQAPGKESELVASITWSDVSTYYADSVKRRFTISRDNAKNTVYLQMNSLKPEDTAVYYCAKGTWADAYGYWGQGTQVTVSS
polyreactivity (PSR sort gate): low polyreactivity

Source: the nanobody polyreactivity screen of Harvey et al. (2022)
